# T1: GST-HDC (human histidine decarboxylase, amino acid residues 1-477, fused to GST) (human, UniProt P19113 1-477)
# T1 sequence: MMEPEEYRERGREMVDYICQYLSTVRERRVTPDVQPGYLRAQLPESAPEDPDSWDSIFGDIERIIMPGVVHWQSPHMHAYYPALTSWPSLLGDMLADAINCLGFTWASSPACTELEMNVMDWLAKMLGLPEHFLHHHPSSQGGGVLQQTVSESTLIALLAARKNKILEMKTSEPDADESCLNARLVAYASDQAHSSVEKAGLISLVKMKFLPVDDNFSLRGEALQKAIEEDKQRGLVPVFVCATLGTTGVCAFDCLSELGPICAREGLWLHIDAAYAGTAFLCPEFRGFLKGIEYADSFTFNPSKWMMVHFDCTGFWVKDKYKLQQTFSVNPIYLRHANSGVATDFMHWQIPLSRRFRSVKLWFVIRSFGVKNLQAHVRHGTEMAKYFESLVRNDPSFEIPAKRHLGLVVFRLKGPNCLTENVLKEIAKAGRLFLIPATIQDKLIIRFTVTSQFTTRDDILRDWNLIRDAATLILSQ
# Target: T1, GST-HDC (human histidine decarboxylase, …)
# Test: cell-based or functional assay
binder,measurement,value
HF [dipeptide histidine-phenylalanine],"IC50 (inhibition of HDC enzyme activity, standard fluorescence polarization HDC assay)",228 µM

# Reference: patent US7608407 (Boehringer Ingelheim, dated 2009)
